Our source for the Kd values is patent publication US20250250555A1 (DENALI THERAPEUTICS, published 2025).

Holding throughout (test): SPR (Biacore), fusion protein captured on chip, human apical domain TfR injected, steady-state fit
In one assay the target is T1, ETV:GAA Fusion 1 (human, UniProt P0DOX5 223-449 = IgG part).
T1 construct: Heterodimer of the two chains; also called N-terminal monozyme GAA-Fc fusion protein
The procedure:
(§1) To determine whether GAA-Fc fusion proteins with engineered TfR binding affects the ability of the modified Fc domain to interact with human TfR, the affinity of ETV:GAA fusion proteins (Example 1) for human TfR was assessed using a Biacore™ surface plasmon resonance assay. Biacore™ Series S CM5 sensor chips were immobilized with anti-human Fab (human Fab capture kit from GE Healthcare). Five (5) μg/mL of the GAA-Fc fusion proteins were captured for 1 minute on each flow cell and serial 3-fold dilutions of human apical domain TfR were injected at a flow rate of 30 μL/min. Each sample was analyzed with a 3-minute association and a 3-minute dissociation. After each injection, the chip was regenerated using 10 mM glycine-HCl (pH 2.1). Binding response was corrected by subtracting the RU from a flow cell capturing an irrelevant IgG at similar density. Steady-state affinities were obtained by fitting the response at equilibrium against the concentration using Biacore™ T200 Evaluation Software v3.1.

Another assay concerns the target T2, ETV:GAA Fusion 3 (human, UniProt P0DOX5 223-449 = IgG part).
T2 construct: Heterodimer of the two chains; also called C-terminal monozyme GAA-Fc fusion protein
The procedure: as §1

A further assay deals with T3, ETV:GAA Fusion 4 (human, UniProt P0DOX5 223-449 = IgG part).
T3 construct: Heterodimer of the two chains; also called C-terminal monozyme GAA-Fc fusion protein
The procedure:
as §1

A further assay concerns the target T4, ETV:GAA Fusion 2 (human, UniProt P0DOX5 223-449 = IgG part).
T4 construct: Heterodimer of the two chains; also called N-terminal monozyme GAA-Fc fusion protein
The procedure: as §1

The Kd is the concentration at which binding is half-saturated. A lower Kd goes with tighter binding.

B1: human apical domain TfR (receptor)
chain: NSVIIVDKNGRLVYLVENPGGYVAYSKAATVTGKLVHANFGTKKDFEDLYTPVNGSIVIVRAGKITFAEKVANAESLNAIGVLIYMDQTKFPIVNAELSFFGHAHLGTGDPYTPGFPSFNHTQFPPSRSSGLPNIPVQTISRAAAEKLFGNMEGDCPSDWKTDSTCRMVTSESKNVKLTVS
notes: also called human TfR; huTfR
Regarding B1, the Kd in the assay with ETV:GAA Fusion 1 is 251 nM; in the assay with ETV:GAA Fusion 3 it was 282 nM; with ETV:GAA Fusion 4, 271 nM; with ETV:GAA Fusion 2, 260 nM.
